The data set can be described thus: protein stability index of a GFP-peptide fusion (GPS, HEK-293T) (PSI 1-6); higher = more stable.
Where [1] appears, read: treatment: DMSO, c terminus: a fixed tail appended.
[2] abbreviates: treatment: MLN4924 1 uM, 8 h, c terminus: a fixed tail appended.

± gives the standard deviation.
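Note: 24-mer peptide tiles fused after GFP, lentivirally expressed, FACS-sorted into six equal bins by GFP/DsRed ratio, decoded by Illumina sequencing, PSI is the read-weighted mean bin number.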

Regarding RLCLVCGDIASGYHYGVASCEACK [ESRRG], the protein stability index by setting is: under setting [1], 4.15 ± 0.12; under setting [2], 4.21 ± 0.18.
Regarding RLHLAFKRQVPTEQARAYAEKNCM [RAB40C], the protein stability index is, setting by setting: under setting [1], 2.98 ± 0.15; under setting [2], 3.1 ± 0.26.
With RLKRTRLGLDDFESLKVIGRGAFG [STK38L], the protein stability index runs as follows: under setting [1], 2.49 ± 0.22; under setting [2], 2.7 ± 0.31.
RLPCSFVTLALLGSYTVQSELGDY [EPB41L3] returned a protein stability index under setting [1] of 2.91 ± 0.56 and a protein stability index under setting [2] of 2.48 ± 0.35.
Consider RLPESVERLTGVSISQVNHKPLRT [FLOT1], for which the protein stability index is, setting by setting: under setting [1], 4.06 ± 0.13; under setting [2], 4.16 ± 0.32.
With RLPTDSHFPYDLHLRSQSLTMQDE [NEUROD6], the protein stability index by setting is: under setting [1], 4.32 ± 0.14; under setting [2], 4.34 ± 0.16.
On to RLSTSPVRLAARQEDAPMIEPLVP [EPB41L3], for which the protein stability index amounted to 4.6 ± 0.18 under setting [1] and 4.63 ± 0.43 under setting [2].
Sequence RNVRFSDEGGFTCFFRDHSYQEEA [MOG] came in with a protein stability index under setting [1] of 3.54 ± 0.35 and a protein stability index under setting [2] of 3.75 ± 0.59.
On the same counts, the results for RPRTRKVKSVSPQGNSVDRMAAPR [NCF4] are 4.85 ± 0.15 and 4.795 ± 0.046.
With RQDADAWTLYKILDSCKQLTLAQG [SMG5], the protein stability index was 2.29 ± 0.26 under setting [1] and 2.32 ± 0.083 under setting [2].
For RQGNPSWKKQQKCDECGKIFSQSS [ZNF396] the same measures were 3.57 ± 0.33 and 3.92 ± 0.11.
RQIIKLNRRLQLLEEENKERAKRE [MFF]: the protein stability index runs as follows: under setting [1], 3.81 ± 0.36; under setting [2], 4.18 ± 0.23.
On the same counts, the results for RRDEQDDDDKGDSKETRLTLMEEV [GOLPH3] are 5.58 ± 0.23 and 5.51 ± 0.2.
As for RRDGKWQNVHFHRSGSPTVPIKPP [CAMK2D], the protein stability index runs as follows: under setting [1], 3.32 ± 0.27; under setting [2], 3.54 ± 0.4.
For RRGIALIFNHERFFWHLTLPERRG [CASP6], the protein stability index by setting is: under setting [1], 2.75 ± 1.6; under setting [2], 2.04 ± 0.68.
Consider RRKQRYWPFSMDCTGTEAHISSCK [LOXL2], for which the protein stability index by setting is: under setting [1], 3.17 ± 0.49; under setting [2], 3.52 ± 0.57.
Turning to RRLEQRWGFGLEELYGLALRFFKE [ACBD3], the protein stability index reads like this: under setting [1], 2.53 ± 0.8; under setting [2], 2.31 ± 0.63.
For RRPEDQELESLSAIEAELEKVAHQ [CHGA] the same measures were 5.15 ± 0.09 and 5.3 ± 0.24.
Regarding RRYLEKSIKMGKRNGLHLPEQVQN [NLN], the protein stability index is 3.2 ± 0.42 under setting [1] and 3.23 ± 0.23 under setting [2].
As to RSDGKTCAKLDSCALGDHGCEHSC [MATN2], the protein stability index reads like this: under setting [1], 4.54 ± 0.31; under setting [2], 4.59 ± 0.32.
In turn, RSRIEEQSQLICILKRRSDEALER [CCDC89] returned a protein stability index under setting [1] of 3.86 ± 0.12 and a protein stability index under setting [2] of 3.76 ± 0.23.
Turning to RSSALWSEMLDITMKESLTTREIR [NET1], the protein stability index stood at 3.13 ± 0.23 under setting [1] and 3.23 ± 0.23 under setting [2].
RSSGSEGTPADTGDLSPGHGASAP [PWWP2B]: the protein stability index under setting [1] was found to be 5.38 ± 0.34 and the protein stability index under setting [2] amounted to 5.35 ± 0.2.
As for RVAKKLQSGLVWTNCWLIRELNLP [ALDH8A1], the protein stability index by setting is: under setting [1], 2.5 ± 0.38; under setting [2], 2.37 ± 0.54.
For RVQGGCYRFDSSSCSSEDNLSLVC [DRICH1] the same measures were 2.58 ± 0.43 and 2.62 ± 0.32.
As to RVYDGREILTCGRDGEPEPMQKLQ [RBBP5], the protein stability index under setting [1] is 4.02 ± 0.38 and the protein stability index under setting [2] came to 3.94 ± 0.31.
On the same counts, the results for RWASAPPLYTLIDVLKYSYVRLVC [ZSWIM9] are 2.6 ± 0.45 and 3.01 ± 0.74.
Regarding RWETSSWSECSRTCGEGYQFRVVR [ADAMTSL2], the protein stability index by setting is: under setting [1], 2.5 ± 0.84; under setting [2], 2.21 ± 0.35.
For RWNPWSTEVPYATFTEHPMKYTSE [TPRG1] the same measures were 3 ± 0.6 and 2.74 ± 0.24.
For RYDHGTFFPMGDEGASSQIGRAAG [HDAC6] the same measures were 4.24 ± 0.37 and 4.13 ± 0.22.
Turning to RYHNSHPLRERARKLSQGILIIRF [YJU2B], the protein stability index is, setting by setting: under setting [1], 3.08 ± 0.35; under setting [2], 2.67 ± 0.45.
Regarding SAASSAAAGEPLECPTCGHSYNVT [RNF208], the protein stability index stood at 4.87 ± 0.27 under setting [1] and 4.77 ± 0.24 under setting [2].
For SAASTSFQPQPVQPQQGYIPPMAQ [ZNF207] the same measures were 4.3 ± 0.17 and 4.38 ± 0.1.
For SAHRALYRRHVLGIVLQGPALCFA [TMEM175], the protein stability index stood at 2.71 ± 0.62 under setting [1] and 2.58 ± 0.62 under setting [2].
In the case of SAMAENILAAACESETRKAAKRMR [NOL4L], the protein stability index is, setting by setting: under setting [1], 4.32 ± 0.2; under setting [2], 4.69 ± 0.46.
For SAQNGLASSLPAEVHSLTLSPPEQ [PLAGL1], the protein stability index is 5 ± 0.15 under setting [1] and 5.03 ± 0.22 under setting [2].
The sequence SCAPSASIPKLKLTRPVPAGADLP [PWWP2B] displayed a protein stability index under setting [1] of 3.21 ± 0.25 and a protein stability index under setting [2] of 3.35 ± 0.27.
Take SCEACKAFFKRTIQGNIEYSCPAT [ESRRG]: the protein stability index by setting is: under setting [1], 2.46 ± 0.25; under setting [2], 2.64 ± 0.37.
SCSEICYTFIIVPKMLVDLLSQKK [OR10K2] displayed a protein stability index under setting [1] of 2.91 ± 0.77 and a protein stability index under setting [2] of 2.71 ± 0.79.
Regarding SDLGLLRLCTWLLALSPDLSLSNA [FANCE], the protein stability index by setting is: under setting [1], 3.08 ± 0.33; under setting [2], 3.17 ± 0.47.
In turn, SDMDRNKTILGNAHDNSEELERAR [ANKRD44] came in with a protein stability index under setting [1] of 5.58 ± 0.16 and a protein stability index under setting [2] of 5.57 ± 0.3.
For SEDRTVRVWLKRDSGQYWPSVYHA [WDFY2] the same measures were 2.27 ± 0.12 and 2.37 ± 0.21.
Regarding SEEYRAPRPQSEESWDEEDKRNYP [CHGB], the protein stability index was 5.47 ± 0.19 under setting [1] and 5.42 ± 0.3 under setting [2].
SELSEHLRDPLTSLSHTELEAAEV [FCHSD1] had a protein stability index under setting [1] of 5.22 ± 0.16 and a protein stability index under setting [2] of 5.32 ± 0.13.
On the same counts, the results for SETDFETEPETAPTTEPETEPEDD [GNAS] are 5.69 ± 0.19 and 5.581 ± 0.055.
For the sequence SFALYLAGFCMFVLSLVKKHYRLQ [CDS1], the protein stability index came out at 2.25 ± 0.36 under setting [1] and 2.04 ± 0.44 under setting [2].
In the case of SFANDRENYDIIKTYHYLYLAMLE [FEM1B], the protein stability index came to 2.44 ± 1.1 under setting [1] and 2.33 ± 0.61 under setting [2].
For SFLFLGCSHSFLLAVMGYDRYIAI [OR10K2], the protein stability index amounted to 3.14 ± 0.21 under setting [1] and 2.83 ± 0.59 under setting [2].
Take SFSEEGAVGYSSDSETLDLEEAEG [NFE2L1]: the protein stability index came to 5.75 ± 0.38 under setting [1] and 5.18 ± 0.5 under setting [2].
For SGLSFITFICYVASSASAFLTAPL [CMTM3] the same measures were 3.15 ± 0.49 and 2.96 ± 0.3.
Turning to SGYMEGYYTFHFLYFKDKIFNVAI [FBXO3], the protein stability index is 3.36 ± 0.48 under setting [1] and 2.75 ± 0.15 under setting [2].
SHECKPEGYEFCHNRKVLTIFSAS [PPEF2]: the protein stability index reads like this: under setting [1], 2.73 ± 0.38; under setting [2], 2.76 ± 0.17.
In the case of SHEDVCVFKCSVSRETECSRVGKQ [CARM1], the protein stability index was found to be 4.11 ± 0.25 under setting [1] and 4.12 ± 0.31 under setting [2].
With SHLPTRSPSFPEAPDSGRSAPYSA [TBX6], the protein stability index reads like this: under setting [1], 4.61 ± 0.21; under setting [2], 4.52 ± 0.28.
SHLVIHNLFEGMIWFIVPISCVIC [CDS2]: the protein stability index runs as follows: under setting [1], 3.09 ± 0.45; under setting [2], 2.81 ± 0.2.
As for SHSRERPYKCVQPDCGKAFVSRYK [PLAGL1], the protein stability index is, setting by setting: under setting [1], 3.34 ± 0.23; under setting [2], 3.37 ± 0.17.
With SINAGSWMWLSCSSFFQQFFHCYC [CRY1], under setting [2], the protein stability index was 3.4 ± 0.11.
In the case of SINVLLMMHGLKPLSLVKRTDLKD [CEP70], the protein stability index came to 2.6 ± 0.6 under setting [1] and 2.59 ± 0.78 under setting [2].
On the same counts, the results for SIPNLAEVKKKGKMKKLGQAMEED [HDAC6] are 4.8 ± 0.088 and 4.86 ± 0.44.
With SIQVRRKPQHGVCSQLLGNYRCL [SERPINB9P1], the protein stability index (treatment: DMSO, c terminus: native) was 2.69 ± 0.51 and the protein stability index (treatment: MLN4924 1 uM, 8 h, c terminus: native) was found to be 3.09 ± 0.18.
Take SLALDIDRDAEDQNRYLDGMVRAH [BET1L]: the protein stability index by setting is: under setting [1], 4.24 ± 0.17; under setting [2], 4.39 ± 0.31.
Turning to SLDTLLEAVESRGGVPGGCVLVPR [SMAD6], the protein stability index under setting [1] turned out to be 3.23 ± 0.17 and the protein stability index under setting [2] turned out to be 3.23 ± 0.25.
On the same counts, the results for SLENSLREVEARYALQMEQLNGIL [KRT18] are 2.15 ± 0.23 and 2.52 ± 0.26.
For SLGASPTVAGIVGSSYGILQLFSS [MFSD9], the protein stability index reads like this: under setting [1], 2.08 ± 0.35; under setting [2], 2.17 ± 0.47.
In the case of SLGYGTNVAATGISQYEDDLPPPP [APBB1IP], the protein stability index was found to be 4.86 ± 0.44 under setting [1] and 4.87 ± 0.42 under setting [2].
For SLKVKFFDLERENACATKEQKNHT [PLD5], the protein stability index under setting [1] was found to be 4 ± 0.36.
For SLQLVFGIELMEVDPIGHVYIFAT [MAGEA6], the protein stability index runs as follows: under setting [1], 2.73 ± 0.21; under setting [2], 3 ± 0.28.
As for SMKASLEGNLAETENRYCVQLSQI [KRT17], the protein stability index was determined as 3.22 ± 0.34 under setting [1] and 3.51 ± 0.39 under setting [2].
Turning to SNAERGTAEPFPRLHNLYSTPRCA [CBY2], the protein stability index worked out at 3.95 ± 0.26 under setting [1] and 4.03 ± 0.14 under setting [2].
Turning to SNNHHLMLEASEWATIEGLVELLQ [ZBED1], the protein stability index under setting [1] stood at 2.66 ± 0.14 and the protein stability index under setting [2] came out at 2.71 ± 0.48.
With SQSSTYRGTYEQDGRFEKRQGNPS [ZNF396], the protein stability index was found to be 4.74 ± 0.3 under setting [1] and 4.79 ± 0.31 under setting [2].
On the same counts, the results for SQVQVSLEDYINDRQYDSRGRFGE [HNF4A] are 4.01 ± 0.14 and 4.18 ± 0.14.

For the origin of these results see the supplement of paper PMC10567573.
